This is an account of results in publication PMC5150261.

In test [1] the target is VHR (as used in the GST pull-down) (not stated (human or mouse cDNA cloned)) (UniProt P51452).
For test [2] the target is unchanged. This is another data set of the same source.

Sequence of UniProt P51452 (P51452 whole entry): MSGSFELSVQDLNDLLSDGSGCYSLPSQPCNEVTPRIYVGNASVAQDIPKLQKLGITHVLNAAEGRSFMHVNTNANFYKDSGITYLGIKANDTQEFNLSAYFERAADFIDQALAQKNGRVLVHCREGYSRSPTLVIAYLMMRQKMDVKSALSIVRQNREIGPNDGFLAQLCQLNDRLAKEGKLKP

Substance “GST-tagged full-length HSP70 (from UniProt P0DMV8 1-641) (natural protein)” came in with an in vitro VHR phosphatase activity with pNPP as substrate (5 μg GST-VHR with 10 μg His-HSP70, against VHR alone) in test [1] of 2 fold. Moreover, in test [2], the in vitro VHR phosphatase activity with purified recombinant p-ERK2 as substrate (1 μg GST-VHR with 2 μg His-HSP70, against VHR alone) worked out at 2 fold.
